According to publication PMC7804450, “Structural insights into TSC complex assembly and GAP activity on Rheb” (Nature Communications, 2021):

B1: tuberous sclerosis complex 2 (TSC2), human, subunit of the purified TSC complex (natural protein)
chain: not shown
notes: TSC2 (tuberin), human; ORF sub-cloned into a modified pCAG vector; residues 127-936, 1015-1082, 1182-1245, 1494-1732 traced; Two copies (TSC2a, TSC2b) stand in the TSC complex (2:2:1); The sample for cryo-EM was cross-linked with glutaraldehyde (Grafix); also called TSC2a; TSC2b
B2: tuberous sclerosis complex 1 (TSC1), human, subunit of the purified TSC complex (natural protein, UniProt Q92574 1-1164, looked up)
chain: MAQQANVGELLAMLDSPMLGVRDDVTAVFKENLNSDRGPMLVNTLVDYYLETSSQPALHILTTLQEPHDKHLLDRINEYVGKAATRLSILSLLGHVIRLQPSWKHKLSQAPLLPSLLKCLKMDTDVVVLTTGVLVLITMLPMIPQSGKQHLLDFFDIFGRLSSWCLKKPGHVAEVYLVHLHASVYALFHRLYGMYPCNFVSFLRSHYSMKENLETFEEVVKPMMEHVRIHPELVTGSKDHELDPRRWKRLETHDVVIECAKISLDPTEASYEDGYSVSHQISARFPHRSADVTTSPYADTQNSYGCATSTPYSTSRLMLLNMPGQLPQTLSSPSTRLITEPPQATLWSPSMVCGMTTPPTSPGNVPPDLSHPYSKVFGTTAGGKGTPLGTPATSPPPAPLCHSDDYVHISLPQATVTPPRKEERMDSARPCLHRQHHLLNDRGSEEPPGSKGSVTLSDLPGFLGDLASEEDSIEKDKEEAAISRELSEITTAEAEPVVPRGGFDSPFYRDSLPGSQRKTHSAASSSQGASVNPEPLHSSLDKLGPDTPKQAFTPIDLPCGSADESPAGDRECQTSLETSIFTPSPCKIPPPTRVGFGSGQPPPYDHLFEVALPKTAHHFVIRKTEELLKKAKGNTEEDGVPSTSPMEVLDRLIQQGADAHSKELNKLPLPSKSVDWTHFGGSPPSDEIRTLRDQLLLLHNQLLYERFKRQQHALRNRRLLRKVIKAAALEEHNAAMKDQLKLQEKDIQMWKVSLQKEQARYNQLQEQRDTMVTKLHSQIRQLQHDREEFYNQSQELQTKLEDCRNMIAELRIELKKANNKVCHTELLLSQVSQKLSNSESVQQQMEFLNRQLLVLGEVNELYLEQLQNKHSDTTKEVEMMKAAYRKELEKNRSHVLQQTQRLDTSQKRILELESHLAKKDHLLLEQKKYLEDVKLQARGQLQAAESRYEAQKRITQVFELEILDLYGRLEKDGLLKKLEEEKAEAAEAAEERLDCCNDGCSDSMVGHNEEASGHNGETKTPRPSSARGSSGSRGGGGSSSSSSELSTPEKPPHQRAGPFSSRWETTMGEASASIPTTVGSLPSSKSFLGMKARELFRNKSESQCDEDGMTSSLSESLKTELGKDLGVEAKIPLNLDGPHPSPPTPDSVGQLHIMDYNETHHEHS
notes: TSC1 (hamartin), human; ORF sub-cloned into a modified pCAG vector; Two copies (TSC1a, TSC1b) stand in the TSC complex (2:2:1); The sample for cryo-EM was cross-linked with glutaraldehyde (Grafix); also called TSC1a; TSC1b

Experiments:
Test in all cases: cryo-EM structure; human TSC complex (TSC1, TSC2, TBC1D7) co-expressed in Expi293F, purified, cross-linked by Grafix (glutaraldehyde); single particle reconstruction, 4.4 Å overall, core 3.6 Å, wings 3.9 and 4.1 Å
[1] = biological target: the molecule itself
[2] = biological target: B1; settings: both partners purified
[3] = biological target: B2; settings: both partners purified

B1
stoichiometry N [1]: 2

B2
binding result [2]: binds

B3: Tre2-Bub2-Cdc16-1 domain family member 7 (TBC1D7), human, subunit of the purified TSC complex (natural protein, UniProt Q9P0N9 1-293, looked up)
chain: MTEDSQRNFRSVYYEKVGFRGVEEKKSLEILLKDDRLDTEKLCTFSQRFPLPSMYRALVWKVLLGILPPHHESHAKVMMYRKEQYLDVLHALKVVRFVSDATPQAEVYLRMYQLESGKLPRSPSFPLEPDDEVFLAIAKAMEEMVEDSVDCYWITRRFVNQLNTKYRDSLPQLPKAFEQYLNLEDGRLLTHLRMCSAAPKLPYDLWFKRCFAGCLPESSLQRVWDKVVSGSCKILVFVAVEILLTFKIKVMALNSAEKITKFLENIPQDSSDAIVSKAIDLWHKHCGTPVHSS
notes: TBC1D7, human; ORF sub-cloned into a modified pCAG vector; residues 21-287 traced; One copy stands in the TSC complex (2:2:1); The sample for cryo-EM was cross-linked with glutaraldehyde (Grafix)
binding result [3]: binds
